Laboratory results from the supplement of paper PMC10567573.
± gives the standard deviation.

Test: protein stability index of a GFP-peptide fusion (GPS, HEK-293T) (PSI 1-6); higher = more stable
[1] = treatment: DMSO, c terminus: a fixed tail appended
[2] = treatment: MLN4924 1 uM, 8 h, c terminus: a fixed tail appended
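Note: 24-mer peptide tiles fused after GFP, lentivirally expressed, FACS-sorted into six equal bins by GFP/DsRed ratio, decoded by Illumina sequencing, PSI is the read-weighted mean bin number.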

Sequence	protein stability index [1]	protein stability index [2]	protein stability index (treatment: DMSO, c terminus: native)	protein stability index (treatment: MLN4924 1 uM, 8 h, c terminus: native)
EEEEEEEEEEDDLSELPPLEDMGQ [FKBP8]	5.37 ± 0.3	5.63 ± 0.12	–	–
EEKQASLWVQGDIFRSKLKNRPSS [CDC14A]	3.89 ± 0.049	4 ± 0.25	–	–
EEKSFWEMEKSFREEEKTFWKKYR [CCDC70]	4.18 ± 0.68	4.232 ± 0.013	–	–
EEVDEDGSGTIDFEEFLVMMVRQM [TNNC2]	3.52 ± 0.15	3.79 ± 0.44	–	–
EEVDQMFQFASIDVAGNLDYKALS [MYL5]	4.27 ± 0.3	4.39 ± 0.27	–	–
EEVSSTVHIETFTTRHGEVGSALH [C10orf62]	4.43 ± 0.36	4.57 ± 0.19	–	–
EGFHNYHHSFPYDYSASEYRWHIN [SCD]	2.37 ± 0.18	2.48 ± 0.18	–	–
EGNLAETENRYCVQLSQIQGLIGS [KRT17]	3.63 ± 0.15	3.94 ± 0.12	–	–
EGRGGRPGSTRPHRSACSSAAVRG [HAGHL]	4.52 ± 0.17	4.58 ± 0.19	–	–
EGYWLPGDEISIKKKNTNKQEMGT [ZMYND11]	4.7 ± 0.17	4.58 ± 0.084	–	–
EIIRVILKLYEQWKNFDERKEMAT [CCNC]	2.09 ± 0.52	2.38 ± 0.3	–	–
EILEQQQQERNDTNFHGVCMFCNE [ZNF277]	3.73 ± 0.37	3.77 ± 0.43	–	–
EIPWTSLTRKGLVRVVFFPLFSNW [PHTF1]	3.09 ± 0.89	2.84 ± 0.23	–	–
EIRDWRGPQLEGEKDWGLEGYVWR [ZSWIM9]	3 ± 0.56	3.29 ± 0.57	–	–
EITEELPSSQLMPVKKQLQGASWE [ZNF396]	4.09 ± 0.14	4.38 ± 0.22	–	–
EKAFIAHFQDNLHSVNRDLNELER [MED27]	3.85 ± 0.23	4.09 ± 0.2	–	–
EKDERQRTTKPMAQRSAHCSRPSG [CSNK1G1]	5.12 ± 0.11	4.98 ± 0.29	–	–
EKEKAEIEAKEACDWLRATGFPQY [DLC1]	4.02 ± 0.24	4.09 ± 0.24	–	–
EKKLTVRQDLEDRYAEHVAATQAL [C22orf31]	4.55 ± 0.12	4.53 ± 0.21	–	–
EKLATDTSTFEATSEGTLELQQRN [ZNF232]	5.29 ± 0.22	5.41 ± 0.14	–	–
EKNLLLQNQVDELERKFRCQQEQL [LRRC45]	4.27 ± 0.31	4.34 ± 0.23	–	–
EKVKKRPGGRPEVIYNYVQRPFIR [BTBD10]	2.9 ± 0.31	2.73 ± 0.63	–	–

Sequence	protein stability index [1]	protein stability index [2]	protein stability index (treatment: DMSO, c terminus: native)	protein stability index (treatment: MLN4924 1 uM, 8 h, c terminus: native)
ELDNPMQQKWTKPARAGSEVEWTE [C2CD2L]	4.1 ± 0.36	4.25 ± 0.21	–	–
ELDRWLYHLEKQTALLGGPRRCHS [PLEKHN1]	2.24 ± 0.19	2.17 ± 0.39	–	–
ELERQRRLLGSVQQDLERSLQDAS [PBXIP1]	4.62 ± 0.26	4.46 ± 0.28	–	–
ELLDLKAGGFSIRNQKGEQVFRLA [MYORG]	2.32 ± 0.33	2.24 ± 0.48	–	–
ELLGVHPGASTEEVKRAFFSKSKE [DNAJC4]	3.8 ± 0.19	4.08 ± 0.42	–	–
ELPNGSVKEAPAPTPTSLEVSSPP [PDZK1]	5.04 ± 0.12	5.09 ± 0.17	–	–
ELPPSLRAPPPGGWPLQPRVQWG [ZMAT5]	–	–	2.75 ± 0.33	2.82 ± 0.099
ELTSVTAWMLCKLLDKAGVPPGVV [ALDH8A1]	2.98 ± 0.42	2.69 ± 0.52	–	–
ENLDEAREQKEKSPPDQPAVPHPP [ADD1]	5.61 ± 0.15	5.66 ± 0.28	–	–
EPAARISPLGALQHGFFRRTADEA [DYRK1B]	4.08 ± 0.13	3.89 ± 0.22	–	–
EPGAGLGIGDMAFEGDMGAAGGDG [PSD2]	5.72 ± 0.23	5.61 ± 0.41	–	–
EPIILPCSHNLCQACARNILVQTP [TRIM9]	2.45 ± 0.18	2.68 ± 0.23	–	–
EPLRILSKYHRFISFTLYLIGFCM [CDS2]	1.95 ± 0.32	1.96 ± 0.16	–	–
EPSNKTIHAELSKLVKKHAAQRST [FKBP8]	4.49 ± 0.21	4.47 ± 0.3	–	–
EPSWECKFDHIEVRDGPFGFSPII [NETO1]	2.36 ± 0.36	2.3 ± 0.22	–	–
EPVAAEPKQSGSFRYLQGMLEAGE [PDLIM4]	4.6 ± 0.11	4.6 ± 0.11	–	–
EQDMERRKADFKAGKALVISGREV [ZC3H15]	4.8 ± 0.3	4.89 ± 0.18	–	–
EQGKPVIPAAVLAGFTGSGPIQLW [ETS2]	2.55 ± 0.43	2.54 ± 0.16	–	–
ERLQLEYVDVVFANRPDPNTPMEE [KCNAB2]	4.7 ± 0.23	4.75 ± 0.33	–	–
ERRRRFNINDRIKELGTLIPKSSD [TFE3]	4.04 ± 0.099	4.09 ± 0.2	–	–
ESAAFSQGSRSGVSGGSRSLNMSR [PHTF1]	4.44 ± 0.17	4.5 ± 0.23	–	–
ESFILDQDDLENPMLETASKLLLS [ANKRD17]	3.99 ± 0.22	4.1 ± 0.38	–	–

Sequence	protein stability index [1]	protein stability index [2]	protein stability index (treatment: DMSO, c terminus: native)	protein stability index (treatment: MLN4924 1 uM, 8 h, c terminus: native)
ESKGCFANTTPSGKSVSSSSSVET [SPATS1]	5.18 ± 0.14	5.19 ± 0.12	–	–
ESLEPDAQVLMLGQILELPWKEET [FANCE]	4.17 ± 0.11	4.17 ± 0.33	–	–
ETNRLGRLINHSKCGNCQTKLHDI [KMT5A]	2.57 ± 0.36	2.75 ± 0.23	–	–
EVGKSFERHKLKRQDADAWTLYKI [SMG5]	2.78 ± 0.4	2.9 ± 0.32	–	–
EVLLGTPYDLAIDMWSLGCILVEM [DYRK1B]	2.79 ± 0.37	2.96 ± 0.51	–	–
EWDAMGGKVQDIKAREKDGKGRTA [FSD1]	5.16 ± 0.21	5.35 ± 0.14	–	–
EYDTVTREVKVLLDQLRFPNGVQL [APMAP]	2.01 ± 0.42	2.22 ± 0.39	–	–
FALLADKAAQQGKQEENDVVEKLN [SNX8]	5.38 ± 0.13	5.33 ± 0.15	–	–
FASGFKRAFKIKDFANTIPGHGGI [CDS1]	2.65 ± 0.43	2.47 ± 0.66	–	–
FATFCGGLAANGALQRLDLRNNQI [LRRC45]	2.36 ± 0.19	2.37 ± 0.23	–	–
FEAEPLPENTNRQLLLQFERLVVL [PI4K2A]	2.12 ± 0.1	2.14 ± 0.26	–	–
FEKHRWPPVWYLKEEDHYQRARKE [RHOBTB2]	3.26 ± 0.3	3.52 ± 0.5	–	–
FFVANKYWRYDEYKRSMDPGYPKM [MMP1]	2.15 ± 0.33	2.16 ± 0.33	–	–
FGAVTNVKVIRDFTTNKCKGFGFV [ELAVL3]	2.42 ± 0.21	2.19 ± 0.38	–	–
FGIGSEILKNLSQVAMRCRCSSMH [SAT1]	2.56 ± 0.58	2.45 ± 0.48	–	–
FGPGQTLLSSVHVLDLEARGYIKP [ALKBH7]	2.43 ± 0.24	2.67 ± 0.3	–	–
FHLAPARAGHHPNQYATCRLCGRQ [ZBED2]	2.58 ± 0.41	3.14 ± 0.68	–	–
FIGLEVVAQLFNCMVGLLLIALLT [ATL3]	3.08 ± 0.3	3.39 ± 0.28	–	–
FIPAKTGKDVATQILEGELFDFDL [RSPH3]	2.7 ± 0.48	2.89 ± 0.56	–	–
FLHVRKATRAMGLLNTLSLAFVGG [TMEM175]	2.16 ± 0.59	1.98 ± 0.35	–	–
FLLSQQTDLPECEQSSARQKASLL [TCF25]	3.78 ± 0.52	3.83 ± 0.12	–	–
